One molecule from patent CN115850461A (INST MICROBIOLOGY CAS, dated 2023) can be followed below.

For one test, the target named is GD/1/2019 假病毒 S蛋白 (sarbecovirus GD/1/2019). The test can be described thus: cell-based or functional assay.
The target of test [1] is SARS-CoV-2 Prototype(PT)假病毒 S蛋白 (SARS-CoV-2 (Prototype), UniProt P0DTC2 14-1273). The test can be described thus: cell-based or functional assay.
The next test has as its target SARS-CoV 假病毒 S蛋白 (SARS-CoV, UniProt P59594 14-1255). The test can be described thus: cell-based or functional assay.
In another test the target is WIV1 假病毒 S蛋白 (sarbecovirus WIV1). The test can be described thus: cell-based or functional assay.
The target of the next test is RaTG13 假病毒 S蛋白 (sarbecovirus RaTG13). Briefly: cell-based or functional assay.
A further test deals with SARS-CoV RBD蛋白 (SARS-CoV, UniProt P59594 306-527). Briefly: SPR, Biacore 8K; 74 captured on protein A chip, RBD as analyte. In general terms: SPR reads the build-up and loss of mass on a sensor chip optically.
The target of test [2] is T1, SARS-CoV-2 Prototype株(PT)RBD蛋白 (SARS-CoV-2 (Prototype), UniProt P0DTC2 319-541).
T1 construct: domain: RBD
The description is as above.

B1: 沙贝病毒广谱人源中和抗体74 (antibody, V domains shown)
VH: QVQLVQSGAQLKKPGESLKISCKGSGYNFSRYWIAWVRHMPGKGLEVMGIIYPDDSDTRYSPSVRGQVTISADKSTSIVYLQWSSLKASDTGIYYCARFGAGMTGMPRYFDTTRWFDPWGQGTQVTVSS
VL: QSVLTQPPSVSGAPGQRVTISCLGGSSNIGAGYDVHWYQHLPGAAPKLLISGNSNRPSGVPARFSGSKSGTSASLAITGLQAEDEADYYCQSYDNDLSQVFGGGTKLTVLG
One may read the Kd as the equilibrium constant for the complex coming apart. Higher therefore signals lower affinity. Broadly, the koff is the first-order rate constant of dissociation. A higher koff goes with fast dissociation. The term kon denotes the rate constant with which the complex forms. On to B1, for which the “IC50, 假病毒中和” value with GD/1/2019 假病毒 S蛋白 was 0.0028 µg/mL; in test [1], 0.95 µg/mL; in the test with SARS-CoV 假病毒 S蛋白 it was 0.041 µg/mL; in the test with WIV1 假病毒 S蛋白, 0.14 µg/mL; with RaTG13 假病毒 S蛋白, over 100 µg/mL. Moreover, the Kd with SARS-CoV RBD蛋白 is under 0.00606 nM; in test [2] it was under 0.0156 nM. Moreover, the results for the koff (in the test with SARS-CoV RBD蛋白; in test [2]) were 6.47e-06 s⁻¹ and 9.52e-08 s⁻¹, respectively. The kon with SARS-CoV RBD蛋白 turned out to be 1.65e+06 M⁻¹ s⁻¹; in test [2] it was 640000 M⁻¹ s⁻¹.
